Changes are numbered by the printed parent chain.

B1: Ab11 (antibody, IgG4, V domains shown)
VH: EVQLLESGGGLVQPGGSLRLSCAASGFTFRNYAMSWVRQAPGKGLEWVSSISGSGGATYYADSVKGRFTISRDNSKNTLYLQMNSLRAEDTAVYYCARVSSGHWDFDYWGQGTLVTVSS
VL: DIQLTQSPSSLSASVGDRVTITCRASQSISSYLNWYQQKPGKAPKLLIYAASNLQSGVPSRFSGSGSGTDFTLTISSLQPEDFATYYCQQTYTVPLTFGGGTKVEIK
B2: Ab12 (antibody, IgG4, V domains shown)
VH: B1 VH with E1Q, L5V, L11V, G16R, R30S, N31D, S35V, S50A, G56F, A57T
VL: B1 VL
B3: Ab26 (antibody, IgG4, V domains shown)
VH: EVQLVESGGGLVQPGGSLRLSCAASGFTFSSFSMDWVRQAPGKGLEWVSYISPDASTIYYADSVKGRFTISRDNAKNTLYLQMNSLRAEDTAVYYCARGVLDYGDMLDPWGQGTLVTVSS
VL: DIQMTQSPSSLSASVGDRVTITCQASQDITNYLNWYQQKPGKAPKLLIYDASNLETGVPSRFSGSGSGTDFTFTISSLQPEDIATYYCQQADNHPPWTFGGGTKVEIK
B4: Ab33 (antibody, IgG4, V domains shown)
VH: B3 VH with D35N, D54S, S56D, R98H
VL: B3 VL
B5: Ab29 (antibody, IgG4, V domains shown)
VH: B3 VH with G16R, S33A, D35N, D62G, T78S, A97V, G99A
VL: B3 VL

T4 sequence (Q86YC3 other isoform, or with tags, fused parts or gaps limits assumed, chain 1 of 2): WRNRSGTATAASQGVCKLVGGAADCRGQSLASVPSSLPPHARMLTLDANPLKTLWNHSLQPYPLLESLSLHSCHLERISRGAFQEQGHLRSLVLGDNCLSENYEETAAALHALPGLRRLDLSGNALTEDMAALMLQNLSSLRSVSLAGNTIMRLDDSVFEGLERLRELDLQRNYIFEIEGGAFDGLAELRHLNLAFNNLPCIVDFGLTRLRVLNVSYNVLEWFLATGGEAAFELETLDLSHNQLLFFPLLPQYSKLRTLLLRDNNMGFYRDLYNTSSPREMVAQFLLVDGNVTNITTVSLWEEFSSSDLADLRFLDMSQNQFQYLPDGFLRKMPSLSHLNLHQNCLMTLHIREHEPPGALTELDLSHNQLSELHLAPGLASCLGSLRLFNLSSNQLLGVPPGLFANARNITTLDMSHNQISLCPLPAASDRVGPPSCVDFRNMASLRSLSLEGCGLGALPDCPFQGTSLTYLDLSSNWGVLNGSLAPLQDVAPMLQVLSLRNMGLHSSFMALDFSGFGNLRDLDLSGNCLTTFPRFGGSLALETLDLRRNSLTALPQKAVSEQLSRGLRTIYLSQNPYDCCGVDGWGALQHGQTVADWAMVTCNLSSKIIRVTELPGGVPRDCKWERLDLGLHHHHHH
T4 sequence (P01137 30-390 limits assumed, chain 2 of 2): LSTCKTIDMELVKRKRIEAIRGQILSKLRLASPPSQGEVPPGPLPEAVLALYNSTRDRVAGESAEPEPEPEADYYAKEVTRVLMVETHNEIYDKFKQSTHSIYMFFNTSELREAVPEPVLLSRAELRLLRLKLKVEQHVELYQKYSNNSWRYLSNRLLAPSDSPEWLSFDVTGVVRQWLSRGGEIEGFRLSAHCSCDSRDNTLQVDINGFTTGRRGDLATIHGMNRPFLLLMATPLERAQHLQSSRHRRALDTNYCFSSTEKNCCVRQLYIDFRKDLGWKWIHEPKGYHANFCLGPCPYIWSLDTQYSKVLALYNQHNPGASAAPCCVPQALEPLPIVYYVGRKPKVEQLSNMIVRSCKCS

The target of one assay is T1, human LTBP1-proTGFβ1 complex (human, UniProt Q14766 873-1507).
T1 construct: range 873-1507; biotinylated in Octet and MSD-SET; also called hLTBP1-proTGFβ1; hLTBP1
T1 sequence (Q14766 873-1507 limits assumed, chain 1 of 2): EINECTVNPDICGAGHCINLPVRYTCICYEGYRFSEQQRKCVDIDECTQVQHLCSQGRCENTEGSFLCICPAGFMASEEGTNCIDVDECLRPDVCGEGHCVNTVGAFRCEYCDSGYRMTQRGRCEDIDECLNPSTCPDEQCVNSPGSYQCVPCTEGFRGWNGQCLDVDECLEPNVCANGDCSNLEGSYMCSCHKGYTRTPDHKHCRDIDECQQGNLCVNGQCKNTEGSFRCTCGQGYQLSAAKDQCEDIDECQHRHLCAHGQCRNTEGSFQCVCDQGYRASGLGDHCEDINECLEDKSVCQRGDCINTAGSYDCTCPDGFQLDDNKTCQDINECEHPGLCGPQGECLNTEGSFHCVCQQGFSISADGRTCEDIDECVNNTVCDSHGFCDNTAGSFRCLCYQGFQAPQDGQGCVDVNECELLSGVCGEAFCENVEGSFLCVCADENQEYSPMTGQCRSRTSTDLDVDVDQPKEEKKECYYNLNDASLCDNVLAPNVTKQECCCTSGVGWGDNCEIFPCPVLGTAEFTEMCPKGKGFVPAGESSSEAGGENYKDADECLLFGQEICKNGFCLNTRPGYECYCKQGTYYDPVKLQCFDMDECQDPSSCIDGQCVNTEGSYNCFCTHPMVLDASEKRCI
T1 sequence (chain, as listed by the source limits assumed, chain 2 of 2): as the sequence (P01137 30-390 limits assumed, chain 2 of 2) above
Put plainly: BLI (Octet).
Turning to B1, the Kd is 0.167 nM.
Molecule B2 returned a Kd of 0.157 nM.
On the same count and under the same terms, the value for B3 was 0.221 nM; that for B4 was 0.179 nM.
With B5, the Kd stood at 0.189 nM.

For the next assay, the target named is T2, human LTBP3-proTGFβ1 complex (human, UniProt Q9NS15 866-1039).
T2 construct: range 866-1039; also called hLTBP3-proTGFβ1; hLTBP3
T2 sequence (Q9NS15 866-1039 limits assumed, chain 1 of 2): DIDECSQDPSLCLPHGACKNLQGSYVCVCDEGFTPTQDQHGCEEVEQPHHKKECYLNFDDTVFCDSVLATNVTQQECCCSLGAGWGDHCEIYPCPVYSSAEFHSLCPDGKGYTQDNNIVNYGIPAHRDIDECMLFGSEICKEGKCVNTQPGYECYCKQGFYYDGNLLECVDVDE
T2 sequence (chain, as listed by the source limits assumed, chain 2 of 2): as the sequence (P01137 30-390 limits assumed, chain 2 of 2) above
Put plainly: BLI (Octet).
In turn, B1 had an equilibrium dissociation constant (Kd) of 0.154 nM.
Same read-out and setting: the value for B2 was 0.183 nM; that for B3 was 0.173 nM.
The same measure, in the same setting: the value for B4 was 0.111 nM.
The molecule B5 displayed a Kd of 0.121 nM.

The target in another assay is T3, human GARP-proTGFβ1 complex (human, UniProt Q14392 20-627; P01137 30-390).
T3 construct: also called hGARP-proTGFβ1; hGARP
As to the kind of experiment: BLI (Octet).
Consider B1, for which the Kd stood at 0.842 nM.
Take B2: the Kd turned out to be 7.01 nM.
Molecule B3 showed a Kd of 0.625 nM.
The molecule B4 displayed a dissociation constant Kd of 0.265 nM.
Regarding B5, the dissociation constant (Kd) was 0.307 nM.

The next assay has as its target T4, human LRRC33-proTGFβ1 complex (human, UniProt Q86YC3 19-650; P01137 30-390).
T4 construct: also called hLRRC33-proTGFβ1; hLRRC33
As to the kind of experiment: BLI (Octet).
In the case of B1, binding was characterised by a dissociation constant (Kd) of 0.555 nM.
Regarding B2, binding was put at a Kd of 0.775 nM.
On the same count and under the same terms, the value for B3 was 0.36 nM; that for B4 was 0.339 nM; that for B5 was 0.302 nM.

Another assay deals with hLTBP1-proTGFβ1 complex made by transfected cells (cell-based potency assay) (human, UniProt Q14766 347-1721; P01137 30-390). As to the kind of experiment: cell-based or functional assay.
Take B1: the “IC50, reporter cell assay of TGFβ1 activation” value (“IC50, reporter cell assay” below) came out at 2.95 nM.
Still for that read-out and setting: the value for B2 was 3.79 nM; that for B3 was 0.713 nM.
Regarding B4, the “IC50, reporter cell assay” value is 1.56 nM.
In the case of B5, the “IC50, reporter cell assay” value turned out to be 0.471 nM.

The target in a further assay is hLTBP3-proTGFβ1 complex made by transfected cells (cell-based potency assay) (human, UniProt Q9NS15 44-1303; P01137 30-390). Put plainly: cell-based or functional assay.
hLTBP3-proTGFβ1 complex made by transfected cells (cell-based potency assay), sequence (Q9NS15 44-1303, chain 1 of 2): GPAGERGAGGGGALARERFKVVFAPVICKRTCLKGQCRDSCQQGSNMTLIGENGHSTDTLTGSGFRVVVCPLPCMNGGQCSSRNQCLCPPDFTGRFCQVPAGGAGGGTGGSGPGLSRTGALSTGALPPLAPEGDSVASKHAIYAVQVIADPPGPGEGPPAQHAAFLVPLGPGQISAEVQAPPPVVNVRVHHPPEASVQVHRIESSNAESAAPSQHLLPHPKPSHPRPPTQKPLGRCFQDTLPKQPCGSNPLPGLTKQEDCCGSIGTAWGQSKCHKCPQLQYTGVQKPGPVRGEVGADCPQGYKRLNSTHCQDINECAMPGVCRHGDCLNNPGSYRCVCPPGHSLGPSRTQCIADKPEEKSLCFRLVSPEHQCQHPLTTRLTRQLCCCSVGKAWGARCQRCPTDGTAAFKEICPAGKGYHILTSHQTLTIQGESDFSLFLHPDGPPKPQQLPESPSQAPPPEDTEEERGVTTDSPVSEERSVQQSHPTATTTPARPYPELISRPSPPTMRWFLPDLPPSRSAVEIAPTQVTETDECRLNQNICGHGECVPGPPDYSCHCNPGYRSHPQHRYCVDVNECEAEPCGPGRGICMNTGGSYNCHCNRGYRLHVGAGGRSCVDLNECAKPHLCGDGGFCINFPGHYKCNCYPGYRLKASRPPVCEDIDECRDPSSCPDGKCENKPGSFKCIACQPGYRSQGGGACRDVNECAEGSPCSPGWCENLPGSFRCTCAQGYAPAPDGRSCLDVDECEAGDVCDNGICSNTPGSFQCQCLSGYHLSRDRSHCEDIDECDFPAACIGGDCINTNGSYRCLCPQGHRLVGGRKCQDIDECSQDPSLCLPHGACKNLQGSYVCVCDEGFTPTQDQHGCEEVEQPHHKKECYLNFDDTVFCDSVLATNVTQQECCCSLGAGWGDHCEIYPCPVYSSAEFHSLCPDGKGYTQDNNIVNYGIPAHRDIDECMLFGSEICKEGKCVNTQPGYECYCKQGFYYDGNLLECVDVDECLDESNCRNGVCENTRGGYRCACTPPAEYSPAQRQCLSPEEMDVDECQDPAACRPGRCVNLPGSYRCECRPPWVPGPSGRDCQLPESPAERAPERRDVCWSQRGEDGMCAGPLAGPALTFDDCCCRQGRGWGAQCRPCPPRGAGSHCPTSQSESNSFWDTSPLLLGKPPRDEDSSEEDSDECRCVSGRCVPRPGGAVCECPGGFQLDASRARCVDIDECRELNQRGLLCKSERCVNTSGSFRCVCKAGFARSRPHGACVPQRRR
hLTBP3-proTGFβ1 complex made by transfected cells (cell-based potency assay), sequence (P01137 30-390, chain 2 of 2): as the sequence (P01137 30-390 limits assumed, chain 2 of 2) above
Take B1: the “IC50, reporter cell assay” value was 1.56 nM.
Regarding B2, the “IC50, reporter cell assay” value amounted to 1.55 nM.
On to B3, for which the “IC50, reporter cell assay” value was found to be 0.716 nM.
B4: the “IC50, reporter cell assay” value was 1.11 nM.
On to B5, for which the “IC50, reporter cell assay” value turned out to be 0.803 nM.

For the next assay, the target named is hGARP-proTGFβ1 complex on cells (human, UniProt Q14392 20-662; P01137 30-390). As to the kind of experiment: cell-based or functional assay.
hGARP-proTGFβ1 complex on cells, sequence (Q14392 20-662 limits assumed, chain 1 of 2): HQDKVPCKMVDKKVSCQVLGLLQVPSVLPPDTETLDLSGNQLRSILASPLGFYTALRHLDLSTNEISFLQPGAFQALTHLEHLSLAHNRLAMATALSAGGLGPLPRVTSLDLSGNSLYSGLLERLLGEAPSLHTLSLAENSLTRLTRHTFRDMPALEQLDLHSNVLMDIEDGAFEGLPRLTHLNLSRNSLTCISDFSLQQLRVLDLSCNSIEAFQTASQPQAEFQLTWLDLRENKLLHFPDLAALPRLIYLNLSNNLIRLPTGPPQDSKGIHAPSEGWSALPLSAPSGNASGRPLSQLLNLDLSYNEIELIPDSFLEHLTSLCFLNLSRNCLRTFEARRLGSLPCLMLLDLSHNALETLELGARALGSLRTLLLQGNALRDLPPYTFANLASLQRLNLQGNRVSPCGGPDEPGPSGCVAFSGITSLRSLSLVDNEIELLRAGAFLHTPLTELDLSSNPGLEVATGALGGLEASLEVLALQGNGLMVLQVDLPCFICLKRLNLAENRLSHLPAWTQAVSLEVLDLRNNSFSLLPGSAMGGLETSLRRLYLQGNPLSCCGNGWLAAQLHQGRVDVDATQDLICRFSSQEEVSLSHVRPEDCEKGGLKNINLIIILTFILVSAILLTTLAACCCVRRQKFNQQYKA
hGARP-proTGFβ1 complex on cells, sequence (P01137 30-390 limits assumed, chain 2 of 2): as the sequence (P01137 30-390 limits assumed, chain 2 of 2) above
Consider B1, for which the “IC50, reporter cell assay” value was determined as 0.79 nM.
For B2, the “IC50, reporter cell assay” value was 1.08 nM.
On to B3, for which the “IC50, reporter cell assay” value was determined as 0.262 nM.
On to B4, for which the “IC50, reporter cell assay” value was found to be 0.198 nM.
For the molecule B5, the “IC50, reporter cell assay” value worked out at 0.264 nM.

A further assay deals with hLRRC33-proTGFβ1 complex on cells (human, UniProt Q86YC3 19-692; P01137 30-390). As to the kind of experiment: cell-based or functional assay.
hLRRC33-proTGFβ1 complex on cells, sequence (Q86YC3 19-692 limits assumed, chain 1 of 2): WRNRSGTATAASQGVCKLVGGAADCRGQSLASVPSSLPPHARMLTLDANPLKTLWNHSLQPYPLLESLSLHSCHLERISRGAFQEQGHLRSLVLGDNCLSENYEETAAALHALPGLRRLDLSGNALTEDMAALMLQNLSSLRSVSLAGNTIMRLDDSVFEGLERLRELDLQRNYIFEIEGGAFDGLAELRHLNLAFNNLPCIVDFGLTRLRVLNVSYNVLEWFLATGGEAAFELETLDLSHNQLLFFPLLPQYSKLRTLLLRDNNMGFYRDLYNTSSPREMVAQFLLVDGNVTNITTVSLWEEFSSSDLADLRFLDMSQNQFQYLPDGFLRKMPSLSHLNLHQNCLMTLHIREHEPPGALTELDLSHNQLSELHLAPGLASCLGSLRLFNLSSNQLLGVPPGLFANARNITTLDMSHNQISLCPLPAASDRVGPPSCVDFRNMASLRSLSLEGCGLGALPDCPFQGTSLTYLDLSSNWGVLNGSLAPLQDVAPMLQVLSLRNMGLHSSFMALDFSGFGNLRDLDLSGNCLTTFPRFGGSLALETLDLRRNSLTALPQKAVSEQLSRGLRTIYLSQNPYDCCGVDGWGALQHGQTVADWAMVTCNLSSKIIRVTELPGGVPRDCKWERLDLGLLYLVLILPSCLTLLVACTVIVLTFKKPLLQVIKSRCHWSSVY
hLRRC33-proTGFβ1 complex on cells, sequence (P01137 30-390 limits assumed, chain 2 of 2): as the sequence (P01137 30-390 limits assumed, chain 2 of 2) above
For the molecule B1, the “IC50, reporter cell assay” value turned out to be 1.27 nM.
B2: the “IC50, reporter cell assay” value stood at 2.43 nM.
Regarding B3, the “IC50, reporter cell assay” value worked out at 0.341 nM.
Turning to B4, the “IC50, reporter cell assay” value is 0.738 nM.
Consider B5, for which the “IC50, reporter cell assay” value worked out at 0.458 nM.

In another assay the target is T1, human LTBP1-proTGFβ1 complex. As to the kind of experiment: MSD-SET, solution equilibrium titration. The protocol: (§1) MSD-SET assays were performed to measure affinities of the antibodies at equilibrium. Briefly, each test antibody was diluted 3-5 fold and samples were mixed with biotinylated antigen in a 48-well dish. The SET samples were equilibrated for 20-24 hours at room temperature. Meanwhile, a capture plate was coated with IgG (20 nM) and incubated overnight at 4° C. or 30 minutes at room temperature, followed by a blocking step with 5% BSA. After the capture plate was washed three times, SET samples were added and incubated for 150 seconds. The plate was washed once to remove unbound complexes. 250 ng/ml SA-Sulfotag was added then washed 3 times. 2× Read Buffer was added, and signals from the labeled bound complexes were read with the use of QuickPlex™ SQ 120 instrument.
As to B1, the Kd came to 1.2 nM.
For B2, the Kd was found to be 0.78 nM.
As to B3, the affinity, expressed as Kd, was 0.028 nM.
On to B4, for which the Kd worked out at 0.011 nM.
Still for that read-out and setting: the value for B5 was 0.012 nM.

A further assay has as its target T2, human LTBP3-proTGFβ1 complex. As to the kind of experiment: MSD-SET, solution equilibrium titration. The protocol:
as §1
B1 returned a Kd of 1.2 nM.
B2 displayed a Kd of 0.66 nM.
The molecule B3 came in with a Kd of 0.023 nM.
Molecule B4 returned a Kd of 0.007 nM.
Turning to B5, the Kd is 0.011 nM.

Another assay deals with T3, human GARP-proTGFβ1 complex. As to the kind of experiment: MSD-SET, solution equilibrium titration. How it is done: as §1
B1 registered a Kd of 3 nM.
The same measure, in the same setting: with B2 the figure was 1.7 nM.
B3 came in with a Kd of 0.014 nM.
Regarding B4, the dissociation constant (Kd) came to 0.0078 nM.
In the case of B5, the Kd was 0.0055 nM.

The target in another assay is T4, human LRRC33-proTGFβ1 complex. As to the kind of experiment: MSD-SET, solution equilibrium titration. The protocol: as §1
In turn, B1 displayed a dissociation constant (Kd) of 6.3 nM.
B2: the Kd is 3.2 nM.
Molecule B3 had a Kd of 0.13 nM.
In turn, B4 displayed a Kd of 0.046 nM.
In turn, B5 yielded a Kd of 0.043 nM.

The record behind these values is patent US20220064275A1 (SCHOLAR ROCK, published 2022).
